Results on one substance are retold here after US20080311132A1.

For one assay, the target named is C5 (UniProt P01031). The assay is described as follows: SPR (Biacore), CVF on the chip, C5 in solution. (In general: SPR reads the build-up and loss of mass on a sensor chip optically.)
A further assay addresses Factor H (UniProt P08603). The experiment in a line: SPR (Biacore), CVF on the chip, factor H in solution.
Assay [1] deals with Factor B (UniProt P00751). The experiment in a line: SPR (Biacore), CVF on the chip, factor B in solution, in EDTA.
Chain of Factor B (P00751 26-764 limits assumed): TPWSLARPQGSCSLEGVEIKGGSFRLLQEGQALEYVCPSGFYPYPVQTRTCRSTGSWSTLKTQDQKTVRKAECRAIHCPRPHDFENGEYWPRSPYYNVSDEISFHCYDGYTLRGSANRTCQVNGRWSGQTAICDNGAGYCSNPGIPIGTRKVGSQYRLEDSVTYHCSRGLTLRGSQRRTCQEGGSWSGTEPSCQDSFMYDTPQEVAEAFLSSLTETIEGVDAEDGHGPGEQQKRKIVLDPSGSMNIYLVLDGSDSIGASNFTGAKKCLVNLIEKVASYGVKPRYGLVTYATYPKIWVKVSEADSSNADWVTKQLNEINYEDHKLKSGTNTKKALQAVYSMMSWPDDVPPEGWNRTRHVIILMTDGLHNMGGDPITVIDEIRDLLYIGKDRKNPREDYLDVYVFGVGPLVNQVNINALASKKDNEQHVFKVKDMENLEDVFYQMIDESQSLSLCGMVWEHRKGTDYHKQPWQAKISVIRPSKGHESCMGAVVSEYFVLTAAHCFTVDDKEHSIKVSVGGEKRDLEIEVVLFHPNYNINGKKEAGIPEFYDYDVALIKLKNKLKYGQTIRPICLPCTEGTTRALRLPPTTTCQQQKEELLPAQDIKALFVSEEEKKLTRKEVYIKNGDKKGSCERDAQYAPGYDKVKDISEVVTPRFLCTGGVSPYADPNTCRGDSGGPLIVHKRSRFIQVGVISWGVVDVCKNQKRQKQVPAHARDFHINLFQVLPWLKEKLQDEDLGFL
Assay [2] concerns the target Factor B (UniProt P00751). The assay is described as follows: SPR (Biacore), CVF on the chip, factor B in solution, with Mg.
Assay [3] addresses Factor B (UniProt P00751). The experiment in a line: SPR (Biacore), CVF on the chip, factor B in solution, with factor D and Mg.
The target of assay [4] is Bb, the activated form of factor B (UniProt P00751). The assay is described as follows: SPR (Biacore) at 25° C., half-life of the C3 convertase formed on CVF on the chip.

Chain of Cobra Venom Factor (Q91132 23-649 limits assumed): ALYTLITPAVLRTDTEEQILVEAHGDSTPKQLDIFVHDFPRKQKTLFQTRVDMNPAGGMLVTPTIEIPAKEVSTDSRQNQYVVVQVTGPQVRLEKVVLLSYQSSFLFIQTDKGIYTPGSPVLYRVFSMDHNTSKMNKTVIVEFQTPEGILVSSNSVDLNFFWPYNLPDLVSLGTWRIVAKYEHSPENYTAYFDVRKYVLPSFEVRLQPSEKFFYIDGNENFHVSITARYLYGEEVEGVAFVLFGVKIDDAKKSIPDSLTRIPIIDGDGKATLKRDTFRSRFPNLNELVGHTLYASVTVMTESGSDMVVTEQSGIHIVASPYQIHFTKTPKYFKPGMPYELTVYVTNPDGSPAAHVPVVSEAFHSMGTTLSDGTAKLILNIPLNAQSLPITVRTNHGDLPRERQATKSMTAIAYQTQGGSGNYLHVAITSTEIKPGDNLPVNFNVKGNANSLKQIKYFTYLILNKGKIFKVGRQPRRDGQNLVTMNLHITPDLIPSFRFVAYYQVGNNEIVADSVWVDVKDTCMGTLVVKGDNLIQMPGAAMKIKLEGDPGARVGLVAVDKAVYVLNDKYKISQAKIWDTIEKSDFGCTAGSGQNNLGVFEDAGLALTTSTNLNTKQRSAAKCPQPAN
Chain of Cobra Venom Factor (Q91132 733-984 limits assumed): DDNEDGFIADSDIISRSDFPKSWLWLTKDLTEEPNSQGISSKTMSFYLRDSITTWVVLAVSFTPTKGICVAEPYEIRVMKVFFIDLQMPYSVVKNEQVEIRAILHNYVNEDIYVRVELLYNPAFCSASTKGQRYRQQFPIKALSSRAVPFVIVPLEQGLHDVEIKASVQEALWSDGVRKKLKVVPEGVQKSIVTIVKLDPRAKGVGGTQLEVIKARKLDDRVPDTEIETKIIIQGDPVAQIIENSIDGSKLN
Chain of Cobra Venom Factor (Q91132 1264-1642 limits assumed): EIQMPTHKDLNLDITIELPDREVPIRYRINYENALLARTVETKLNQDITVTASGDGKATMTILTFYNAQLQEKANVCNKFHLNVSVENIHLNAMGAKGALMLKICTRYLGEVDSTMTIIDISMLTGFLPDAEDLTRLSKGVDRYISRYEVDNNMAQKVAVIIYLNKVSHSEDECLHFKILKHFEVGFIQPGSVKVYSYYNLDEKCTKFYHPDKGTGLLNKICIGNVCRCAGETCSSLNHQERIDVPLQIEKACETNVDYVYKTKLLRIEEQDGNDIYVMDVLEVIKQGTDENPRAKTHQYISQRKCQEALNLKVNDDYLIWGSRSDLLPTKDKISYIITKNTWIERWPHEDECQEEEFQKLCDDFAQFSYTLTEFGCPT
Chain of C5 (P01031 19-673 limits assumed, form in doubt, chain 1 of 2): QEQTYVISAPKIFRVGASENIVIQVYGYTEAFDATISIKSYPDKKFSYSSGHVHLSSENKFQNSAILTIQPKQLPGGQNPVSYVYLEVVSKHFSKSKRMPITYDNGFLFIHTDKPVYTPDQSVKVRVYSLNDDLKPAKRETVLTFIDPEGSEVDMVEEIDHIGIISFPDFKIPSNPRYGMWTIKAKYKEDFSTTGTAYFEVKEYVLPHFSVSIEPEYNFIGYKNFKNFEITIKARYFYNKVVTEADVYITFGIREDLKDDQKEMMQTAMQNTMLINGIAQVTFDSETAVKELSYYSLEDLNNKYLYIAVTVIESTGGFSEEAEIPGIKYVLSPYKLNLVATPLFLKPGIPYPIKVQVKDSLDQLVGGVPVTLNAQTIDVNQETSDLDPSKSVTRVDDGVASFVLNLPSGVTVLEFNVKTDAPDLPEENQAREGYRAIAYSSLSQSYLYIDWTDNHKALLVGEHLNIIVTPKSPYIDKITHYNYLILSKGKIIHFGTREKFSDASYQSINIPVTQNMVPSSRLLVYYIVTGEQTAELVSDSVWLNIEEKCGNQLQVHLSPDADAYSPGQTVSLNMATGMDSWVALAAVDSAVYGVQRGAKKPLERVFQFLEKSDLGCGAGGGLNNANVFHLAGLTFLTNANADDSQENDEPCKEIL
Chain of C5 (P01031 678-1676 limits assumed, form in doubt, chain 2 of 2): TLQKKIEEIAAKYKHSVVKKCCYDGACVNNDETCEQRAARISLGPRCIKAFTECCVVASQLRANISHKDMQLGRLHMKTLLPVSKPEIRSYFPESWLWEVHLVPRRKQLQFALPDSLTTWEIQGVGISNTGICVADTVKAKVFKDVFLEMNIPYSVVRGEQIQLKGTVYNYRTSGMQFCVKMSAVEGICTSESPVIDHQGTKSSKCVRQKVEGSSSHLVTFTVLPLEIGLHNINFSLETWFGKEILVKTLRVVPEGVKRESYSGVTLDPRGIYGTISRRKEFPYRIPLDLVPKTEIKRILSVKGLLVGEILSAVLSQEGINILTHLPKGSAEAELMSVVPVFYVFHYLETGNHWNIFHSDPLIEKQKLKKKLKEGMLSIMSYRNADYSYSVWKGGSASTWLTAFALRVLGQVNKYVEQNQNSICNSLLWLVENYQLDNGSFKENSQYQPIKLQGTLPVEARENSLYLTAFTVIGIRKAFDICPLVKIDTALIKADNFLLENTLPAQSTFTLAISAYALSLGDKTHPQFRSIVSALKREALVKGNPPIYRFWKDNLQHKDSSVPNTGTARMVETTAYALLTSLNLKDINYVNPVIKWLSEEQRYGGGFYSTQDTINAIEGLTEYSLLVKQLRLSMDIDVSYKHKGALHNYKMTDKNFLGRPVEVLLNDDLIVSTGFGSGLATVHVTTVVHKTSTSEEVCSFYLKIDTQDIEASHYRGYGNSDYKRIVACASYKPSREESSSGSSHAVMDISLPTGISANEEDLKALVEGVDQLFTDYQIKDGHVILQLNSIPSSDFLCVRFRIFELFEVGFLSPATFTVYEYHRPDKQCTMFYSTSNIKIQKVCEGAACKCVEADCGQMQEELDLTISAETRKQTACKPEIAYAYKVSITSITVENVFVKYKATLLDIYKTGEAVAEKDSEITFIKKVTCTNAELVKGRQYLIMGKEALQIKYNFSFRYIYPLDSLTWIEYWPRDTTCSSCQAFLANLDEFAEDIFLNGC
Chain of Factor H (P08603 19-1231 limits assumed): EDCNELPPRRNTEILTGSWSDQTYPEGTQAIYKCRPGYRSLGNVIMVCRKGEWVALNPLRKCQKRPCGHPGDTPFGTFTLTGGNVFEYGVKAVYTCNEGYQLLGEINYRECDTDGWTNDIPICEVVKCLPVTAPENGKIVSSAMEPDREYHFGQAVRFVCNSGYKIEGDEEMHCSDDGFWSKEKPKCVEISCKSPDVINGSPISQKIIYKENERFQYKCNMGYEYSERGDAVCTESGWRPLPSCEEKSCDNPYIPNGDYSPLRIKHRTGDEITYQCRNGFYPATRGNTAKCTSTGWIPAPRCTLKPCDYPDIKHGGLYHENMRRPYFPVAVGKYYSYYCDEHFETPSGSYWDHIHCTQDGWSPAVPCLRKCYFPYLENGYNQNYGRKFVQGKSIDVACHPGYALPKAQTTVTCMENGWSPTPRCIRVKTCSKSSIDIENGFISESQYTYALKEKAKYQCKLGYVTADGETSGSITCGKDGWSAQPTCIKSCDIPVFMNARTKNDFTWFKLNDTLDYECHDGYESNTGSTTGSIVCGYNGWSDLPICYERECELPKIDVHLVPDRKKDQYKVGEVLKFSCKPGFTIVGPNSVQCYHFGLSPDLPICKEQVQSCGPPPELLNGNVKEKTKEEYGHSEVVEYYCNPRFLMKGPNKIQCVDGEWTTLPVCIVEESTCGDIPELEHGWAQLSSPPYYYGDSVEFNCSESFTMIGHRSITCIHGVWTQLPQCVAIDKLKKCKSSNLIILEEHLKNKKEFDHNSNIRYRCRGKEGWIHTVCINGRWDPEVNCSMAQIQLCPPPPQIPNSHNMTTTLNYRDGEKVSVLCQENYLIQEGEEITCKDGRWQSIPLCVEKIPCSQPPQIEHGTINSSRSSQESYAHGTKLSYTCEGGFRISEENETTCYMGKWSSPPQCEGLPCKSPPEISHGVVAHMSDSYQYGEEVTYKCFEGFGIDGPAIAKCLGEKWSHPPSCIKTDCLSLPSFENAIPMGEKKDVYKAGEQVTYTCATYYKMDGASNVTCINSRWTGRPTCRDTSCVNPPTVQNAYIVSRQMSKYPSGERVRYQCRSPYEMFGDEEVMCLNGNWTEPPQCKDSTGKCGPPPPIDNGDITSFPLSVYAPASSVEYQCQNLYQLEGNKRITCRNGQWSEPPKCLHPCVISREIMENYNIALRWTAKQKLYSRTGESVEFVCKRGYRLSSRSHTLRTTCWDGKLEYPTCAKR

As for “Cobra Venom Factor (from UniProt Q91132 23-649; Q91132 733-984; Q91132 1264-1642)”, the Amount of protein bound (RU) with C5 is 617 RU; with Factor H it was -14 RU; in the assay with Factor B [1] it was 99 RU; in the assay with Factor B [2] it was 298 RU; with Factor B [3] it was 370 RU. Further, the T½ of C3 convertase in assay [4] amounted to 18.3 h.
